Laboratory results: patent US20230272067A1 (published 2023)
Read-outs that look alike come from different tables or passages of the source.

T1: extracellular domain (ECD) of mouse TIGIT (mouse, UniProt P86176 29-148, biotinylated (site not stated))
T1 chain: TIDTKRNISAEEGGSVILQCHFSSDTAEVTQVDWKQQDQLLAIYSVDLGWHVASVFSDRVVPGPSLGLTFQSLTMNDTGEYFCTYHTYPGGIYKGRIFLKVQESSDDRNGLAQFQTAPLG

T2: extracellular domain (ECD) of human TIGIT (human, UniProt Q495A1 22-141, biotinylated (site not stated))
T2 chain: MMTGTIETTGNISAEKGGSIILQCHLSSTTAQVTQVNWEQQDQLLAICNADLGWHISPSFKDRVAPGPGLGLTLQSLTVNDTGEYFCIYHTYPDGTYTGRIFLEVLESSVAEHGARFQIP


Assays:
[1] = target: T1, extracellular domain (ECD) of mouse …; test: SPR (Biacore T200, multi-cycle)
[2] = target: T2, extracellular domain (ECD) of human …; test: SPR (Biacore T200, multi-cycle)
[3] = target: T1, extracellular domain (ECD) of mouse …; test: SPR (Biacore T200, multi-cycle)
[4] = target: T2, extracellular domain (ECD) of human …; test: SPR (Biacore T200, multi-cycle)
[5] = target: T2, extracellular domain (ECD) of human …; test: competition ELISA; competition with hCD112
[6] = target: T2, extracellular domain (ECD) of human …; test: competition ELISA; competition with hCD155
[7] = target: T1, extracellular domain (ECD) of mouse …; test: competition ELISA; competition with mCD155

Row | Kd [1] [nM] | Kd [2] [nM] | Kd [3] [nM] | Kd [4] [nM] | IC50 [5] [µg/mL] | IC50 [6] [µg/mL] | IC50 [7] [µg/mL] | Binder
1 | 2.74 | 8.75 | – | – | – | – | – | T4M (antibody, V domains shown) VH: QVQLQQWGAGLLKPSETLSLTCAVYGGSFNDYYWTWIRQAPGKGLEWIGEITHSGSADYNPSLKSRVTISVDTSKNQFSLKLRSVTAADTAVYYCARGLKLFRWKKTTVTTFPPYYYGMDVWGQGTTVTVSS VL: not shown
2 | – | – | 21.6 | 3.49 | – | – | – | CS19ME3-23 (antibody, V domains shown) VH: EVQLLESGGGLVQPGGSLRLSCAASGFTFSSYAMHWVRQAPGKGLEWVAVISYDGSNKYYADSVKGRFTISRDNSKNTLYLQMNSLRAEDTAVYYCATLEGGGRYYDFWSADYWGQGTLVTVSS VL: QSALTQPRSVSGSPGQSVTISCTGTSSDVGGYNFVSWYQQHPGKAPKLLIYAVSKRPSGVPDRFSGSKSGNTASLTISGLQAEDEADYYCSSYSSESTRVVFGGGTKLTVL
3 | – | – | 2.85 | 3.36 | 0.9 | 1.18 | 0.67 | CS19ME3-30-N (antibody, V domains shown) VH: QVQLVESGGGVVQPGRSLRLSCAASGFTFSSYAMHWVRQAPGKGLEWVAVISYDGSNKYYADSVKGRFTISRDNSKNTLYLQMNSLRAEDTAVYYCATLEGGGRYYDFWSADYWGQGTLVTVSS VL: QSALTQPRSVSGSPGQSVTISCTGTSSDVGGYNFVSWYQQHPGKAPKLLIYAVSNRPSGVPDRFSGSKSGNTASLTISGLQAEDEADYYCSSYSSESTRVVFGGGTKLTVL
